In patent US20180155451A1 (published 2018):

B1: GpH7-B14/GpL16-k0 (antibody, human IgG1, kappa)
heavy: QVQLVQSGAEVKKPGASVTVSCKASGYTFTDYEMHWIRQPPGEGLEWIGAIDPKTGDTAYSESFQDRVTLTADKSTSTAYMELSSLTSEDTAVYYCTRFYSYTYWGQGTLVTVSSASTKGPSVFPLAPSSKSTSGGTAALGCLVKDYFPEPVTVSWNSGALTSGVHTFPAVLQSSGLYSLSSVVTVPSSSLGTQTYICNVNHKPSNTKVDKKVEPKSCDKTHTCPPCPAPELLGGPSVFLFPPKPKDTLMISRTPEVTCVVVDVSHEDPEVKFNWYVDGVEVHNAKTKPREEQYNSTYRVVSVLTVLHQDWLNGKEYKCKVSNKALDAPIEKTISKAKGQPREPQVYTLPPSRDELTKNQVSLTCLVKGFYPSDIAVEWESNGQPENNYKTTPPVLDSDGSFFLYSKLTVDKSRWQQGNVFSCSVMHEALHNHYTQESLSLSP
light: DIVMTQSPLSLPVTPGEPASISCQASESLVHSNRNTYLHWYLQKPGQSPQLLIYKVSNRFSGVPDRFSGSGSGTDFTLKISRVEAEDVGVYYCSQNTHVPPTFGQGTKVEIERTVAAPSVFIFPPSDEQLKSGTASVVCLLNNFYPREAKVQWKVDNALQSGNSQESVTEQDSKDSTYSLSSTLTLSKADYEKHKVYACEVTHQGLSSPVTKSFNRGEC
notes: P329D in both H chains
B2: GpH7-B15/GpL16-k0 (antibody, human IgG1, kappa)
heavy: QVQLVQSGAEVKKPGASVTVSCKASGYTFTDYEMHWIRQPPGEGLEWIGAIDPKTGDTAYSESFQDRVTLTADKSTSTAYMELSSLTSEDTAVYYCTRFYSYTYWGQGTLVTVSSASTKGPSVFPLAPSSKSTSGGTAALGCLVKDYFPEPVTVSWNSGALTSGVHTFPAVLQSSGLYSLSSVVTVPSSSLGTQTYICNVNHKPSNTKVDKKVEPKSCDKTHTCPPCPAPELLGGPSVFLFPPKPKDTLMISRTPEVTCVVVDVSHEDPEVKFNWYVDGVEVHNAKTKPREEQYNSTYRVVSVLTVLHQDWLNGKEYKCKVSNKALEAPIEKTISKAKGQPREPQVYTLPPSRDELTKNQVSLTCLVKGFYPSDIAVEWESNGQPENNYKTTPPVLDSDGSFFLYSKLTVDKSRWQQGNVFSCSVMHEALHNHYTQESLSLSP
light: B1 light
notes: P329E in both H chains
B3: H240-Kn193/H240-Hl204/L73-k0 (antibody, human IgG1, kappa)
heavy 1: QDQLVQSGAEVKKPGASVKVSCKASGFNIKDTYIQWVRQAPGQGLEWMGRIDPLRKQTKYREKFEGRVTITADTSTNTAYMELSSLRSEDTAVYYCVRSGREFDYWGQGTLVTVSSASTKGPSVFPLAPSSKSTSGGTAALGCLVKDYFPEPVTVSWNSGALTSGVHTFPAVLQSSGLYSLSSVVTVPSSSLGTQTYICNVNHKPSNTKVDKKVEPKSCDKTHTCPPCPAPEYNWGPMVFLFPPKPKDTLMISRTPEVTCVVVDVSDEDPEVKFNWYVDGVEVHNAKTKPRERQYNATYRVVSVLTVLHQDWLNGKEYKCKVSNKDLPAPIEKTISKAKGQPREPQVCTLPPSRDELTKNQVSLWCLVKGFYPSDIAVEWESNGQPENNYKTTPPVLDSDGSFFLYSKLTVDKSRWQQGNVFSCSVMHEALHNHYTQKSLSLSP
heavy 2: QDQLVQSGAEVKKPGASVKVSCKASGFNIKDTYIQWVRQAPGQGLEWMGRIDPLRKQTKYREKFEGRVTITADTSTNTAYMELSSLRSEDTAVYYCVRSGREFDYWGQGTLVTVSSASTKGPSVFPLAPSSKSTSGGTAALGCLVKDYFPEPVTVSWNSGALTSGVHTFPAVLQSSGLYSLSSVVTVPSSSLGTQTYICNVNHKPSNTKVDKKVEPKSCDKTHTCPPCPAPELLTGPSVFLFPPKPKDTLMISRTPEVTCVVVDVSHEEPEVKFNWYVDGVEVHNAKTKPREEQYNSTYRVVSVLTVLHQDWLNGKEYKCKVSNDALPKPEEETISKAKGQPREPQVYTLPPSRCELTKNQVSLSCAVKGFYPSDIAVEWESNGQPENNYKTTPPVLDSDGSFFLVSKLTVDKSRWQQGNVFSCSVMHEALHNHYTQKSLSLSP
light: DIQMTQSPSSLSASVGDRVTITCRASQDIHKYIAWYQQKPGQAPRLLIQYTSTLQPGVPSRFSGSGSGTDYTFTISSLQPEDIATYYCLQYEQLRTFGGGTKVEIKRTVAAPSVFIFPPSDEQLKSGTASVVCLLNNFYPREAKVQWKVDNALQSGNSQESVTEQDSKDSTYSLSSTLTLSKADYEKHKVYACEVTHQGLSSPVTKSFNRGEC
notes: Y235N/E294R in H240-Kn120; G236T/I332E in H240-Hl068

What was measured:
FcγRIa [1] = molecular target: T1, FcγRIa (human, UniProt P12314 16-292); assay: SPR (Biacore), relative binding
T1 construct: extracellular domain; also called FcgRIa; FcgRI; not shown: His tag attached to the C terminus
Excerpt: The constructed expression vectors were each combined with GpH7-A5 and GpL16-k0 to express heterodimerized antibodies, or they were combined with GpL16-k0 alone but not with other H chains to express homodimerized antibodies. These antibodies were expressed and purified according to the method described in Reference Example 1. The resulting purified antibodies are the following: the heterodimerized antibodies GpH7-A5/GpH7-B12/GpL16-k0, GpH7-A5/GpH7-B13/GpL16-k0, GpH7-A5/GpH7-B14/GpL16-k0, and GpH7-A5/GpH7-B15/GpL16-k0; and homodimerized antibodies GpH7-B12/GpL16-k0, GpH7-B13/GpL16-k0, GpH7-B14/GpL16-k0, and GpH7-B15/GpL16-k0. The prepared antibodies were used to assess the binding activity to each FcγR by the method described in Reference Example 2.
Analysis of interaction between objective antibody and the FcγR was carried out using Biacore T100 (GE Healthcare). HBS-EP+ (GE Healthcare) was used as the running buffer, and the measurement temperature was set to 25° C. Chips produced by immobilizing the antigen peptide by the amine coupling method to a Series S Sencor Chip CM5 (GE Healthcare), or alternatively, chips produced by allowing preliminarily biotinylated antigen peptides to interact with and immobilize onto a Series S Sensor Chip SA (certified) (GE Healthcare) were used. Antibodies of interest were captured onto an antigen peptide-immobilized chip, and allowed to interact to each FcγR diluted with running buffer. To regenerate and repeatedly use the chip, the antibodies captured on the chip were washed off by reacting 10 mM glycine-HCl, pH 1.5.

FcγRIa [2] = molecular target: T1, FcγRIa; assay: SPR (Biacore4000), kinetic analysis
Procedure: The variants described above were assessed for their binding to FcγR according to the method described in Reference Example 8.
Analysis of interaction between obj ective antibody and the FcγR was carried out using Biacore T100 (GE Healthcare), Biacore T200, Biacore A100, and Biacore 4000. HBS-EP+ (GE Healthcare) was used as the running buffer, and the measurement temperature was set to 25° C. Chips produced by immobilizing the antigen peptide by the amine coupling method to a Series S sensor Chip CM5 (GE Healthcare), chips produced by allowing preliminarily biotinylated antigen peptides to interact with and immobilize onto a Series S Sensor Chip SA (certified) (GE Healthcare), chips produced by immobilizing Protein L (ACTIGEN, BioVision) to Series S Sencor Chip CM5 (GE Healthcare), or chips produced by immobilizing Protein A/G (Thermo Scientific) to Series S Sencor Chip CM5 (GE Healthcare) were used. Antibodies of interest were captured onto these chips, and allowed to interact to each FcγR diluted with running buffer. To regenerate and repeatedly use the chip, the antibodies captured onto the chip were washed off by reacting 10 mM glycine-HCl, pH 1.5.

FcγRIIIa F = molecular target: T2, FcγRIIIa F (human, UniProt P08637 17-208); assay: SPR (Biacore), KD
T2 construct: extracellular domain; also called FcgRIIIa F; FcgRIIIaF; not shown: His tag attached to the C terminus

FcγRIIIa V = molecular target: T3, FcγRIIIa V (human, UniProt P08637 17-208); assay: SPR (Biacore), KD
T3 construct: extracellular domain; also called FcgRIIIa V; FcgRIIIaV; not shown: His tag attached to the C terminus
T3 sequence (P08637 17-208 F176V limits assumed): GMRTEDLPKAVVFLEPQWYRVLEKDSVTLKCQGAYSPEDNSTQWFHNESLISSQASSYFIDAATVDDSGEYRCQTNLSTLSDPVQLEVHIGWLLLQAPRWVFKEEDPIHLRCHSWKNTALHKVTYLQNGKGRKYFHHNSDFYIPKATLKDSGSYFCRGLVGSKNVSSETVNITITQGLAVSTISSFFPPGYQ

T1 sequence (P12314 16-292): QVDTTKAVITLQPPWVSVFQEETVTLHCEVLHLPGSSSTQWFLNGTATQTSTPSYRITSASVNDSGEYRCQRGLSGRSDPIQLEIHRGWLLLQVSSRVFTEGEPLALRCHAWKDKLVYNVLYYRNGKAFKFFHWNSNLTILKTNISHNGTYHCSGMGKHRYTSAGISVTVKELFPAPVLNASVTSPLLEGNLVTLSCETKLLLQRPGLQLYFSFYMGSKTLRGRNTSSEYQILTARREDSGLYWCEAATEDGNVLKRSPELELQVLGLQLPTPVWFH
T2 sequence (P08637 17-208): as the sequence (P08637 17-208 F176V limits assumed) above, with V160F counted along it

| Binder | binding activity relative to GpH7-A5/GpH7-B3/GpL16-k0 (FcγRIa [1]) | koff (FcγRIa [2]) | fold enhancement of binding against the variant before introduction of I332E and Y235N (FcγRIIIa F) | fold enhancement of binding against the variant before introduction of I332E and Y235N (FcγRIIIa V) |
| --- | --- | --- | --- | --- |
| B1 | ≤ 0.2 fraction of GpH7-A5/GpH7-B3/GpL16-k0 | – | – | – |
| B2 | ≤ 0.2 fraction of GpH7-A5/GpH7-B3/GpL16-k0 | – | – | – |
| B3 | – | < 5e-05 s⁻¹ | 2 fold | 8 fold |
